Laboratory results as given in PMC5485662 (Nature medicine, 2016).

Legend:
[1] = target: HA ectodomain of wild-type A/California/07/2009 (pdm2009) (Influenza A virus A/California/07/2009 …); test: BLI
HA of A/USSR/92/1977 [2] = target: T1, HA of A/USSR/92/1977 (Influenza A virus A/USSR/92/1977 …, UniProt P03453, strain); test: BLI
HA of A/USSR/92/1977 [3] = target: T1, HA of A/USSR/92/1977; test: cell-based or functional assay

| Binder | Kd [1] | Kd (HA of A/USSR/92/1977 [2]) | IC50 of neutralisation (microneutralization, MDCK cells) of A/USSR/92/1977 virus (HA of A/USSR/92/1977 [3]) |
| --- | --- | --- | --- |
| Fab of antibody D1 H1–53 (donor 1, 2011–12 cohort) (Fab, V domains shown) VH: QVQLQESGPGLVKPSETLSLTCTVSGGSITNYFWSWIRQPPGKGLEWIGYISYSGSTNHNPSLKSRVTMSLDTSKKQFSLKLSSVTAADMAVYFCARGERFGESPYYSYHMDVWGQGTTVTVSS VL: not shown | > 100 µM |  |  |
| Fab of antibody D1 H1–2 (donor 1, 2011–12 cohort) (Fab, V domains shown) VH: QVQLQESGPGLVKPSETLSLRCAVSGSSISSLFYWGWIRQPPGKGPEWIGSIYHSGSTYYNPSLKSRVTISVDASKTQFSLNLNSVTAADTAVYYCAREYRILDERSNYFDAWGQGSPVTVSS VL: SYELTQPPSVSVSPGQTVSITCSGDKMGDKYASWYQQKPGQSPFLVIYQDNKRPSGIPERFSGSNSGNTATLTISGTQAMDEADYYCQTWDISSGVVFGGGTKL | > 100 µM |  |  |
| Fab of inferred intermediate I-2 of lineage CL6515 (Fab, V domains shown) VH: EVQLVQSGAEVKKPGESLKISCKGSGYSFTSYWIGWVRQMPGKGLEWMGIIYPGDSDTRYSPSFQGQVTISADKSISTAYLQWSSLKASDTAMYYCARVVADREGFGYYYGMDVWGQGTTVTVSS VL: EIVLTQSPGTLSLSPGERATLSCRASQSVDSSSLAWYQQKPGQAPRLLIYAASSRATGIPDRFSGSGSGTDFTLTISRLEPEDFAVYYCQQCGSSPWTFGQGTKVEIK |  | 1.9 µM | 0.012 µg/mL |
|  (Fab, V domains shown) VH: EVQLVQSGAEVKKPGESLKISCKGSGYSFTSYWIGWVRQMPGKGLEWMGIIYPGDSDTRYSPSFQGQVTISADKSISTAYLQWSSLKASDTAMYYCARVVADREGFGYYYGMDVWGQGTTVTVSS VL: not shown | > 50 µM |  |  |
| Fab of antibody D1 H1–12 (donor 1, 2011–12 cohort) (Fab, V domains shown) VH: QVQLQESGPGLVKPSETLSLTCSVSGGSLNTYYWSWIRQPPGKGLEWIGYIYYSGNTNYNPSLKSRVAISVDTSKNQFSLKLTSVTAADTAVYYCARLYMVRGELWGFYFDHWGQGTLVTVSS VL: QSVLTQPASVSGSPGQSITISCTGTSSDVGSYNLVSWYQHHPGKAPKLMIYEDIERPSGVSNRFSGSKSGNTASLTISGLQAEDEGDYYCCSYAGSSTSWVFGGGTKLTVL | > 100 µM |  |  |
